± gives the uncertainty stated by the source.
Assay: self-splicing fitness, log relative to wild type (ln ratio); higher = more splicing; Tetrahymena group I intron in knt gene, E. coli kanamycin selection, DiMSum; sequences stand for … in CUCUCU…GGAGGGAAAAGUUAUCAGGCAUGCACCUGGUAGCUAGUCUUUAAACCAAUAGAUUGCAUCGGUUUAAAAGGCAAGACCGUCAAAUUGCGGGAAAGGGGUCAACAGCCGUUCAGUACCAAGUCUCAGGGGAAACUUUGAGAUGGCCUUGCAAAGGGUAUGGUAAUAAGCUGACGGACAUGGUCCUAACCACGCAGCCAAGUCCUAAGUCAACAGAUCUUCUGUUGAUAUGGAUGCAGUUCACAGACUAAAUGUCGGUCGGGGAAGAUGUAUUCUUCUCAUAAGAUAUAGUCGGACCUCUCCUUAAUGGGAGCUAGCGGAUGAAGUGAUGCAACACUGGAGCCGCUGGGAACUAAUUUGUAUGCGAAAGUAUAUUGAUUAGUUUUGGAGUACUCGUGGUCG
Outline: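 Colonies from six replicate transformations of E. coli BL21(DE3) were pooled and amplicon-sequenced on an Illumina HiSeq 2500. The library placed an intron with all eight P1ex-region nucleotides randomised inside the knt kanamycin-resistance gene on pET-22b(+), and cells grew overnight at 37°C or 30°C on LB agar with or without 25 μg/mL kanamycin (plus 100 μg/mL carbenicillin, 50 μM IPTG, 0.2% rhamnose). Fitness is the DiMSum error-weighted combination of wild-type-normalised replicate fold changes, kanamycin versus none.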

| Sequence | self-splicing fitness (ln) (30 °C) | self-splicing fitness (ln) (37 °C) |
| --- | --- | --- |
| ACGCAGCAAUAUUACGACUG | -2.72 ± 0.14 | -2.02 ± 0.2 |
| ACGCAGCAAUAUUACGAUUC | -2.28 ± 0.085 | -1.43 ± 0.096 |
| ACGCAGCAAUAUUACGCACA | -0.862 ± 0.11 | -0.0125 ± 0.12 |
| ACGCAGCAAUAUUACGCCGG | -2 ± 0.11 | -0.692 ± 0.15 |
| ACGCAGCAAUAUUACGCGCG | -2.59 ± 0.18 | -2.07 ± 0.2 |
| ACGCAGCAAUAUUACGCGGA | -2.95 ± 0.22 | -1.87 ± 0.17 |
| ACGCAGCAAUAUUACGCGGU | -4.57 ± 0.19 | -2.37 ± 0.12 |
| ACGCAGCAAUAUUACGCGUA | -3.63 ± 0.23 | -2.1 ± 0.15 |
| ACGCAGCAAUAUUACGGACG | -1.31 ± 0.05 | -0.318 ± 0.07 |
| ACGCAGCAAUAUUACGGAUG | -3.06 ± 0.15 | -1.67 ± 0.14 |
| ACGCAGCAAUAUUACGGAUU | -2.19 ± 0.08 | -0.83 ± 0.085 |
| ACGCAGCAAUAUUACGGCCC | -0.00164 ± 0.16 | 0.0347 ± 0.18 |
| ACGCAGCAAUAUUACGGGCA | -1.08 ± 0.081 | -0.293 ± 0.094 |
| ACGCAGCAAUAUUACGGUAG | -3.56 ± 0.17 | -2.94 ± 0.19 |
| ACGCAGCAAUAUUACGGUCU | -0.587 ± 0.049 | 0.0141 ± 0.056 |
| ACGCAGCAAUAUUACGGUUU | -0.937 ± 0.054 | -0.076 ± 0.083 |
| ACGCAGCAAUAUUACGUCGC | -1.16 ± 0.12 | -2.45 ± 0.22 |
| ACGCAGCAAUAUUACGUGAG | -1.19 ± 0.056 | -0.552 ± 0.07 |
| ACGCAGCAAUAUUACGUGAU | -1.78 ± 0.039 | -0.783 ± 0.055 |
| ACGCAGCAAUAUUACGUGGA | -3.14 ± 0.14 | -2.37 ± 0.14 |
| ACGCAGCAAUAUUACGUGGC | -2.88 ± 0.14 | -2.26 ± 0.17 |
| ACGCAGCAAUAUUACGUUGC | -2.7 ± 0.1 | -2.75 ± 0.16 |

| Sequence | self-splicing fitness (ln) (30 °C) | self-splicing fitness (ln) (37 °C) |
| --- | --- | --- |
| ACGGAGCAAUAUUACGAAGG | -3.68 ± 0.21 | -2.7 ± 0.27 |
| ACGGAGCAAUAUUACGACAG | -2.34 ± 0.26 | -2.62 ± 0.34 |
| ACGGAGCAAUAUUACGACCA | -3.73 ± 0.4 | -1.08 ± 0.24 |
| ACGGAGCAAUAUUACGACGA | -1.49 ± 0.1 | -0.442 ± 0.13 |
| ACGGAGCAAUAUUACGACGU | -2.27 ± 0.17 | -1.56 ± 0.23 |
| ACGGAGCAAUAUUACGAGAG | -2.06 ± 0.34 | -2.22 ± 0.45 |
| ACGGAGCAAUAUUACGAGUG | – | -2.8 ± 0.38 |
| ACGGAGCAAUAUUACGCAAU | -2.81 ± 0.24 | -3.02 ± 0.43 |
| ACGGAGCAAUAUUACGCCAG | -4.18 ± 0.43 | -1.11 ± 0.39 |
| ACGGAGCAAUAUUACGCGAC | -2.45 ± 0.21 | -2.55 ± 0.41 |
| ACGGAGCAAUAUUACGCUUA | -2.71 ± 0.17 | -1.03 ± 0.11 |
| ACGGAGCAAUAUUACGCUUC | -2.92 ± 0.21 | -2.81 ± 0.23 |
| ACGGAGCAAUAUUACGCUUU | -4.74 ± 0.38 | -1.98 ± 0.17 |
| ACGGAGCAAUAUUACGGAGC | -1.67 ± 0.34 | – |
| ACGGAGCAAUAUUACGGGAU | -1.84 ± 0.14 | -1.83 ± 0.2 |
| ACGGAGCAAUAUUACGGGGG | – | -1.58 ± 0.29 |
| ACGGAGCAAUAUUACGUCUC | -4.93 ± 0.32 | -1.94 ± 0.15 |
| ACGGAGCAAUAUUACGUUAG | -2.74 ± 0.18 | -2.5 ± 0.33 |
| ACGGAGCAAUAUUACGUUCA | -1.94 ± 0.18 | -0.749 ± 0.13 |
| ACGUAGCAAUAUUACGAAAA | -2.5 ± 0.21 | -1.58 ± 0.19 |
| ACGUAGCAAUAUUACGAAUC | -4.01 ± 0.3 | -2.74 ± 0.3 |

From the supplement of paper PMC7877785
